Test results as given in FireProtDB (doi:10.1021/bi00212a026).

B1: Ribonuclease, P00648 (parent)
chain: MMKMEGIALKKRLSWISVCLLVLVSAAGMLFSTAAKTETSSHKAHTEAQVINTFDGVADYLQTYHKLPDNYITKSEAQALGWVASKGNLADVAPGKSIGGDIFSNREGKLPGKSGRTWREADINYTSGFRNSDRILYSSDWLIYKTTDHYQTFTKIR

Variants of: B1
Settings: Bacillus amyloliquefaciens; pH 6.3; 25 °C; Urea; Fluorescence; MES 50 mM; NaCl 0.15 M; reversible: yes; structure 1BNI; whole UniProt chain shown

Variant	ddG of mutation (higher = less stable) [kcal/mol]	denaturant m value [kcal/mol/M]	denaturant midpoint (higher = more stable) [M]	unfolding free energy [kcal/mol]
I123T	2.69	1.87	3.26	6.1
I51A Y125F	2.53	1.95	3.21	6.26
I51A I123V	1.86	1.92	3.61	6.93
I51A I98V	2.63	2.11	2.92	6.16
